Measurements taken from patent US20210325404A1 (ADURO BIOTECH HOLDINGS EUROPE B V, published 2021).

T1: human APRIL in serum of CLL patients (human, UniProt O75888 105-250)
T1 construct: Endogenous soluble APRIL in patient sera (CLL1, CLL3, CLL6, CLL11-20); also called hAPRIL; A Proliferation-Inducing Ligand
T1 sequence (looked up): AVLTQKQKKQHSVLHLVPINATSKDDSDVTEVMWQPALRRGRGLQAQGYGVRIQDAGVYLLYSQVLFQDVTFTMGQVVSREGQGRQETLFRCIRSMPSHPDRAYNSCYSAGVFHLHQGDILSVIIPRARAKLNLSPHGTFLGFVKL


Assays:
[1] = target: T1, human APRIL in serum of CLL patients; experiment: ELISA: serum APRIL of CLL1, CLL3 and CLL6 captured by BCMA-Fc (500 or 100 ng/well)
Experimental: To quantify the APRIL serum levels in serum derived from CLL patients using the newly identified APRIL monoclonal antibodies, hAPRIL.130, hAPRIL.132, hAPRIL.133, hAPRIL.135 and hAPRIL.138 the following ELISA assay was performed. […] Next, plates were washed three times with PBS/0.2% Tween and blocked with 150 μl PBS/1% BSA for one hour at 37° C. After washing 3 times with PBS/0.2% Tween 100 μl of samples or standard curves was added. The CLL serum samples were five times diluted in PBS/10% FCS, while standard curve was diluted in PBS+FCS 10%+HS 20%. Samples and standard curve concentrations were incubated for 2 hr at room temperature. Next, plates were washed three times with PBS/0.2% Tween. Next, 100 μl of the anti-APRIL monoclonal antibody was added to the plates at a concentration of 1 μg/ml diluted in PBS/1% BSA and incubated for one hour at 37° C. Subsequently, plates were washed three times with PBS/0.2% Tween and 100 μl of Goat anti-Mouse IgG (H&L) (Southern Biotech, cat number 1031-05), diluted 1:1,000 in PBS/1% BSA was added and incubated for one hour at 37° C. Plates were washed three times with PBS/0.2% Tween and bound immune complexes visualized by addition of 100 μl of TMB substrate (TMB). The reaction was stopped by adding an equal amount of 1 M hydrochloric acid to the reaction volume. Bound APRIL was quantified by measurement of optical density at 450 nm.

[2] = target: T1, human APRIL in serum of CLL patients; experiment: ELISA: serum APRIL captured by BCMA-Fc, antibody at 1 µg/ml, goat anti-mouse IgG detection
Experimental: To quantify the APRIL serum levels in serum derived from CLL patients using the newly identified APRIL monoclonal antibodies, hAPRIL.130, hAPRIL.132, hAPRIL.133, hAPRIL.135 and hAPRIL.138 the following ELISA assay was performed. ELISA plates were coated with 100 μl of 0.5 μg/ml BCMA-Fc (EBC0512081; R&D), in coating buffer (0.2 M Sodium Phosphate, pH=6.5) and incubated overnight at 4° C. Next, plates were washed three times with PBS/0.2% Tween and blocked with 150 μl PBS/1% BSA for one hour at 37° C. After washing 3 times with PBS/0.2% Tween 100 μl of samples or standard curves was added. The CLL serum samples were five times diluted in PBS/10% FCS, while standard curve was diluted in PBS+FCS 10%+HS 20%. Samples and standard curve concentrations were incubated for 2 hr at room temperature. Next, plates were washed three times with PBS/0.2% Tween. Next, 100 μl of the anti-APRIL monoclonal antibody was added to the plates at a concentration of 1 μg/ml diluted in PBS/1% BSA and incubated for one hour at 37° C. Subsequently, plates were washed three times with PBS/0.2% Tween and 100 μl of Goat anti-Mouse IgG (H&L) (Southern Biotech, cat number 1031-05), diluted 1:1,000 in PBS/1% BSA was added and incubated for one hour at 37° C. […] Bound APRIL was quantified by measurement of optical density at 450 nm.

Row | Binder | binding result [1] | binding result [2]
1 | hAPRIL.135 (antibody, IgG1, V domains shown, constant regions are not; also called anti-hAPRIL antibody hAPRIL.135) VH: QVQLKESGPGLVAPSQSLSITCTVSGFSLSRYSVHWVRQPPGKGLEWLGMIWGGGSTDYNSALKSRLSISKDNSKRQVFLKMNSLQTDDTAIYYCARSNWEIYALDYWGQGTSVTVSS VL: DIVLTQSPASLAVSLGQRATISCKASQSIDYDGDNYMNWYQQKPGQPPKLLIYVASSLESGIPARFSGSGSGTDFTLNIHPVEEEDAATYYCQQSNVEPYTFGGGTKLEIK | binds | 
2 | hAPRIL.132 (antibody, IgG1, V domains shown, constant regions are not; also called anti-hAPRIL antibody hAPRIL.132) VH: QEQLKESGPGLVAPSQSLSITCTVSGFSLTSYGVHWVRQPPGKGLEWLGVIWAGGSTNYNSALMSRLSISRDNSKSQVFLKMNSLQTDDTAMYYCAREGLDTSGFYYAMDYWGQGTSVTVSS VL: DIQMTQTTSSLSASLGDRVTISCRAGQAISNYLNWYQQKPGGTVKLLIYYTSKLHSGVPSRFSGSGSGTDYSLTISNLEQEDIATYFCQQGYTLPYTFGGGTKLEIK | binds | 

Results, then the binder that gave them:

Row | binding result [1] | binding result [2] | Binder
3 | binds |  | hAPRIL.133 (antibody, IgG1, V domains shown, constant regions are not; also called hAPRIL.133 mAb; anti-hAPRIL.133 monoclonal antibody) VH: QVQLKESGPGLVAPSQSLSITCTVSGFSLTGYGVNWVRQPPGKGLEWLGVIWGDGSTEYNSALKSRLSISKDKSKSQVFLKMNSLQTDDTARYYCARDDDVMDYWGQGTSVTVSS VL: SIVMTQTPKFLLVSAGDSITITCKADQSVSSDVAWYQQKAGQSPKLLIYYASNRYTGVPDRFTGSGYGTDFTFAISSVQAEDLAVYFCQQDYSSPWTFGGGTKLEIK
4 |  | binds | hAPRIL.138 (antibody, IgG1, V domains shown, constant regions are not; also called anti-hAPRIL antibody hAPRIL.138) VH: QVQLKESGPGLVAPSQSLSITCTVSGFSLSRYSIHWVRQPPRKGLEWLGMIWGGGSTDYNSALKSRLSINKDNSKRQVFLKMHSLQTDDTAIYYCARSNWEIYAMDYWGQGTSVTVSS VL: DIVLTQSPPSLAVSLGQRATISCKASQSIDYDGDRYMNWYQQKPGQPPKLLIYVASNLESGIPARFSGSGSGTDFTLNIHPVEEEDAATYYCQQSHEEPHTFGGGTKLEIK
